From article PMC6957217

Target: Three of the mutant needles, I933A, N937A, and G938A
Experiment: ELISA; gp37 trimers coated (100 ng/well) overnight at 4°C, casein block, OmpC added (various molar ratios; gp37:OmpC 1:1 for the mutants), 37°C 2 hr, PBS-T washes, bound OmpC detected with mouse anti-OmpC sera and HRP anti-mouse IgG

fold binding against the WT needle: 2 to 3 fold
B1: recombinant OmpC trimer (outer membrane protein C) (natural protein)
chain: AEVYNKDGNKLDLYGKVDGLHYFSDNKDVDGDQTYMRLGFKGETQVTDQLTGYGQWEYQIQGNSAENENNSWTRVAFAGLKFQDVGSFDYGRNYGVVYDVTSWTDVLPEFGGDTYGSDNFMQQRGNGFATYRNTDFFGLVDGLNFAVQYQGKNGNPSGEGFTSGVTNNGRDALRQNGDGVGGSITYDYEGFGIGGAISSSKRTDAQNTAAYIGNGDRAETYTGGLKYDANNIYLAAQYTQTYNATRVGSLGWANKAQNFEAVAQYQFDFGLRPSLAYLQSKGKNLGRGYDDEDILKYVDVGATYYFNKNMSTYVDYKINLLDDNQFTRDAGINTDNIVALGLVYQF
